Data published in patent US20260116967A1 (CSPC MEGALITH BIOPHARMACEUTICAL, published 2026).

T1: human PVRIG on Jurkat-hPVRIG cells (human, UniProt Q6DKI7 41-326)
T1 construct: whole, on cells; also called PVRIG on cell surface; effector cells stably expressing PVRIG
T1 sequence (looked up): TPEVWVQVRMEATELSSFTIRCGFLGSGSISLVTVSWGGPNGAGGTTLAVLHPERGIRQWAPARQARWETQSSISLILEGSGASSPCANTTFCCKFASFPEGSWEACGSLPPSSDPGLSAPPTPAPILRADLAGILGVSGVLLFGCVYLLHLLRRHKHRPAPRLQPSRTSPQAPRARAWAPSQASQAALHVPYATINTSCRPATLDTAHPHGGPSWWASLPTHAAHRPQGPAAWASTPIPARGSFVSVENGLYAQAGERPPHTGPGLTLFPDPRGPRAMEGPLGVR

T2: cynomolgus monkey PVRIG on 293T-cynoPVRIG cells (cynomolgus monkey, UniProt A0A2K5WVV8 41-322)
T2 construct: whole, on cells; also called full-length monkey PVRIG
T2 sequence: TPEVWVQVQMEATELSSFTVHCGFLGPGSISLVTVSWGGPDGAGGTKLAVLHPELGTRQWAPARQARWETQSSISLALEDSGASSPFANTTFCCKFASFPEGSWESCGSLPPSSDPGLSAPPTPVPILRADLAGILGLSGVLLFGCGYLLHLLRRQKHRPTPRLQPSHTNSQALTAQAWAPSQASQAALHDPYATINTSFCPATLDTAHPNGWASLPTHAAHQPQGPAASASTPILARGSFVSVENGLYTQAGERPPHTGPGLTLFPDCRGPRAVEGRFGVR

T3: PVRIG-hFc protein (human, UniProt Q6DKI7 41-171, limits assumed)
T3 construct: also called human PVRIG protein; not shown: human Fc (hFc)
T3 sequence (looked up): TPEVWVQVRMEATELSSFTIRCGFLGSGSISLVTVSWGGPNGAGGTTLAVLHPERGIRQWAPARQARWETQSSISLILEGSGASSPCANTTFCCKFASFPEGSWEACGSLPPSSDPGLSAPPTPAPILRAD

T4: human PVRIG-His protein (human, UniProt Q6DKI7 41-171, limits assumed)
T4 construct: not shown: His tag
T4 sequence (looked up): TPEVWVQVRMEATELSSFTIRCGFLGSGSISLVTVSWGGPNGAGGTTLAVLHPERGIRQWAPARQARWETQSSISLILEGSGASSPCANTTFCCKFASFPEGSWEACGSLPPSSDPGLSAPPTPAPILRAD

T5: recombinant human PVRIG protein (PVRIG extracellular full-length protein) (human, UniProt Q6DKI7 41-171)
T5 construct: also called recombinant PVRIG protein; soluble PVRIG
T5 sequence: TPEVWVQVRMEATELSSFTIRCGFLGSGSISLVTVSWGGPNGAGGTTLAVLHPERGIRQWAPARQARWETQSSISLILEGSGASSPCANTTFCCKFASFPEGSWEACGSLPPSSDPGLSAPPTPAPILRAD

T6: recombinant cynomolgus monkey (Cyno) PVRIG protein (cynomolgus monkey, UniProt A0A2K5WVV8 41-171)
T6 construct: also called soluble cynomolgus monkey PVRIG
T6 sequence: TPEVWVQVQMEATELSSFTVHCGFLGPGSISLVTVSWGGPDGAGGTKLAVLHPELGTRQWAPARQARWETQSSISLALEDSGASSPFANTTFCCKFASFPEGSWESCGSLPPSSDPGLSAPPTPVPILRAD

B1: SRF813-IgG1 (antibody, V domains shown)
VH: QVQLVQSGAEVKKPGSSVKVSCKASGGTFSSAAISWVRQAPGQGLEWMGNIIPIVGIANYAQKFQGRVTITADESTSTAYMELSSLRSEDTAVYYCARDTGRGYTRHFWFDPWGQGTLVTVSS
VL: DIQMTQSPSSLSASVGDRVTITCRASQSISSYLNWYQQKPGKAPKLLIYAASSLQSGVPSRFSGSGSGTDFTLTISSLQPEDFATYYCQQSDILYTFGGGTKVEIK
B2: Hab21F10C10.12 (antibody, V domains shown)
VH: QVQLVQSGAEVKKPGASVKVSCKASGYTFINNFIEWVRQAPGQGLEWMGVINPGSGDANYAQKFQGRVTMTRDTSISTAYMELSRLRSDDTAVYYCASHWLAYWGQGTTVTVSS
VL: EIVMTQSPPTLSLSPGERVTLSCRSSQSLLSSGNQKNYLSWYQQKPGQAPRLLIYGASTRETGIPARFSGSGSGTDFTLTISSLQPEDFAVYYCQNGHFYPYTFGGGTKLEIK
notes: Humanized antibody; also called Hab21F10C10-VH.1d + Hab21F10C10-VL.1c
B3: Hab1B10E8.6 (antibody, V domains shown)
VH: QVQLVQSGAEVKKPGASVKVSCKASGYSFPSYWMHWVRQAPGQGLEWIGEINPSNGLTNYNEQFRNRVTMTVDTSTSTVYMELSSLRSEDTAVYYCARHHGSTYYALDSWGQGTLVTVSS
VL: DIVMTQSPDSLAVSLGERATINCKSSQSLLNSINQKNFLAWYQQKPGQPPKLLVYFASTRESGVPDRFSGSGSGTDFTLTISSLQAEDVAVYFCQQHYSTPPTFGGGTKLEIK
notes: Humanized antibody; also called Hab1B10E8-VH.1b + Hab1B10E8-VL.1b
B4: 43F7C9-hIgG1 (antibody, V domains shown)
VH: DVQLQESGPGLVKPSQSLSLTCTVTGYSITSDYAWNWIRQFPGNRLEWMGYIRYNGNTNYNPSLKSRISITRDTSKNQFFLQLNSVTTEDTATYYCAIIYYDYDGFVYWGQGTLVTVSA
VL: DILLTQSPATLSVTPGETVSLSCRASQNVYENLHWYQQKSHRSPRLLIKFASDSISGIPSRFTGSGSGTDYTLSINSVKPEDEGIYYCLQLYSTPYTFGGGTELEIK
notes: also called 43H7C9-hIgG1; 43H7C9
B5: Hab43F7C9.12 (antibody, V domains shown)
VH: QVQLQESGPGLVKPSETLSLTCTVSGYSISSDYAWNWIRQPPGKGLEWIGYIRYNGNTNYNPSLKSRVTISVDTSKNQFSLKLSSVTAADTAVYYCAIIYYDYDGFVYWGQGTTVTVSS
VL: DIQMTQSPSSLSASVGDRVTITCRASQNVYENLHWYQQKPGKAPKLLIKFASDSISGVPSRFSGSGSGTDFTLTISSLQPEDFATYYCLQLYSTPYTFGGGTKLEIK
notes: Humanized antibody; also called Hab43F7C9-VH.1d + Hab43F7C9-VL.1c; 43H7C9.12
B6: 21F10C10-hIgG1 (antibody, V domains shown)
VH: QVQLQQSGAELVRPGTSVKVSCKASGYAFINNFIEWVKQRPGQGLEWIGVINPGSGDANYNEKFKGKATLTADKSSTTAYIQLSSLTSDDSAVYFCASHWLAYWGQGTLVTVSA
VL: DIVMTQSPSSLSVSAGEKVTMSCKSSQSLLSSGNQKNYLAWYQQKPGQPPKLLIYGASTRESGVPDRFTGSGSGTDFTLTISSVQAEDLAVYYCQNGHFYPYTFGGGTKLEIK
notes: also called 21F10C10 chimeric antibody

Assays:
[1] = biological target: T1, human PVRIG on Jurkat-hPVRIG cells; assay: flow cytometry on Jurkat-hPVRIG cells
Method: The cells were inoculated at a density of 2×10⁶/ml in 96-well plate, 100 μl/well. 4-fold gradient dilutions of antibodies (0-66.7 nM) were added to incubate at 4° C. for 1 h. Goat anti-human secondary antibody was added, and the cells were labeled in the dark at 4° C. for 45 min. After the cells were collected and washed, the fluorescence intensity of the cells was read by flow cytometry. […] At the same time, the affinity of Hab43F7C9.12 in recognizing cell surface PVRIG is better than that of the control molecule SRF813.

[2] = biological target: T2, cynomolgus monkey PVRIG on …; assay: flow cytometry on 293T-cynoPVRIG cells
Method: The cells were seeded in a 96-well plate at a density of 2×10⁶, 100 μl/well, then washed three times with FACS buffer and the supernatant was discarded. Antibodies diluted with PBS buffer (0-2.5 nM) in a gradient were added to incubate at 4° C. for 1 h. The cells were washed three times with FACS buffer, and then labeled with Alexa Fluor 488-labeled goat anti-human IgG antibody at 4° C. in the dark for 45 min. The cells were washed three times with FACS buffer, and the fluorescence intensity of the cells was read by flow cytometry.

PVRIG-hFc protein [3] = biological target: T3, PVRIG-hFc protein; assay: blocking ELISA: antibody titrated against PVRIG-hFc binding to coated CD112-His
Method: The ELISA method was used to determine the ability of humanized PVRIG antibody to block the binding of human CD112 protein to human PVRIG protein. The CD112-His protein was diluted to a concentration of 1 μg/ml, and coated on the ELISA plate. A 3-fold gradient dilution of the antibody (0-133 nM) was mixed with the PVRIG-hFc protein and added to the coated ELISA plate to incubate at 37° C. for 1 hour. After washing the plate, the HRP-labeled goat anti-human Fc antibody was added to incubate at 37° C. for 1 hour. After washing the plate, the color developing solution was added, then adding the stop solution after 5 minutes and reading the results. The blocking results of the antibodies obtained are shown in FIG. 6 and Table 12 after GraphPad fitting. […] At the same time, Hab1B10E8.6, Hab21F10C10.12 and Hab43F7C9.12 have better ELISA blocking ability than the control molecule SRF813.

[4] = biological target: T1, human PVRIG on Jurkat-hPVRIG cells; assay: cell-based or functional assay
PVRIG-hFc protein [5] = biological target: T3, PVRIG-hFc protein; assay: blocking flow cytometry: antibody titrated against PVRIG-hFc (1 ug/ml) binding to 293T-CD112 cells
Method: The cells were washed three times with FACS buffer, and then labeled with Alexa Fluor 488-labeled goat anti-human IgG antibody at 4° C. in the dark for 50 min. Then the cells were washed three times with FACS buffer, and the fluorescence intensity of the cells was read by flow cytometry.

human PVRIG-His protein = biological target: T4, human PVRIG-His protein; assay: BLI (Fortebio), PVRIG-His on HIS1K biosensor, antibody as analyte
Method: The HIS1K biosensor was used, and human PVRIG-His protein was immobilized on the biosensor to a binding response threshold of 0.3 nm. After a 120 s baseline step, the sensor was immersed in an anti-PVRIG antibody diluted with 0.02% PBST buffer, with a starting antibody concentration of 25 nM, performing gradient dilution of 2-fold concentration with 7 gradients set. The binding and dissociation time of the immobilized substance and the analyte were 120 s and 300 s, respectively. The affinity data of antigen and antibody was calculated by regression analysis software based on the binding curve.

[6] = biological target: T5, recombinant human PVRIG protein (PVRIG …); assay: ELISA, human PVRIG protein coated at 500 ng/ml
Method: The affinity of humanized antibody to recombinant human PVRIG protein was determined by ELISA. The PVRIG protein was diluted to 500 ng/ml, and coated on the ELISA plate. After blocking, 3-fold gradient dilution of antibody (0-66.7 nM) was added, then performed color development and reading after incubation with goat anti-human secondary antibody.

[7] = biological target: T6, recombinant cynomolgus monkey (Cyno) …; assay: ELISA, Cyno-PVRIG protein coated at 500 ng/ml
Method: The affinity of humanized antibody to recombinant cynomolgus monkey (Cyno) PVRIG protein was determined by ELISA. The Cyno-PVRIG protein was diluted to 500 ng/ml, and coated on the ELISA plate. After blocking, a 3-fold gradient dilution of the antibody (0-33.3 nM) was added. After incubation with goat anti-human secondary antibody for 1 hour, the plate was washed and the color was developed to read.

[8] = biological target: T5, recombinant human PVRIG protein (PVRIG …); assay: ELISA, PVRIG extracellular protein coated at 500 ng/ml
Method: VH and VL were respectively constructed into a eukaryotic expression vector comprising hIgG1-kappa constant region. The obtained eukaryotic expression vector was transiently transfected into HEK-293 cells and cultured for 6 days. The culture supernatant was harvested and purified by Protein A to obtain target antibodies, which were named 21F10C10-hIgG1 and 43F7C9-hIgG1, respectively. The affinity of the antibodies to the recombinant PVRIG protein was determined by ELISA. The PVRIG extracellular full-length protein diluted to a concentration of 500 ng/ml was coated on the ELISA plate. The plate was washed 3 times with PBST buffer, and then 200 μl of PBS buffer containing 2% BSA was added, and the plate was blocked at 37° C. for 2 h. After the blocking was completed, the plate was washed 3 times with PBST buffer; 3-fold gradient dilutions of the test antibody (0-33.3 nM) were added, incubated at 37° C. for 2 h; then the plate was washed 3 times with PBST buffer. Horseradish peroxidase-labeled goat anti-human antibody was added, incubated at 37° C. for 1 h; then the plate was washed three times with PBST buffer. TMB single-component color developing solution was added for color development, reading the absorbance value after adding the stop solution.

Binder | EC50 [1] [nM] | EC50 [2] [nM] | EC50 (PVRIG-hFc protein [3]) [nM] | EC50 (nM) of reporter genes [4] [nM] | EC50 (PVRIG-hFc protein [5]) [nM] | Kd (human PVRIG-His protein) [nM] | koff (human PVRIG-His protein) [s⁻¹] | kon (human PVRIG-His protein) [M⁻¹ s⁻¹] | EC50 [6] [nM] | EC50 [7] [nM] | EC50 [8] [nM]
B1 | 0.0497 | 0.15 | 0.431 | 0.963 | – | – | – | – | – | – | –
B2 | 0.0553 | 0.267 | 0.226 | 0.164 | 2.52 | < 0.001 | < 1e-07 | 837000 | 0.165 | 0.364 | –
B3 | 0.0501 | 0.124 | 0.285 | 0.184 | 2.56 | < 0.001 | < 1e-07 | 782000 | 0.0869 | 0.141 | –
B4 | – | – | – | – | – | – | – | – | – | – | 0.29
B5 | 0.0178 | 0.108 | 0.258 | 0.0651 | 1.46 | < 0.001 | < 1e-07 | 963000 | 0.145 | 0.0797 | –
B6 | – | – | – | – | – | – | – | – | – | – | 0.122
